From publication PMC3563353 (2012)
Square brackets hold non-standard residues; d marks the D form. Primed or numbered codes have the meaning given here. Side chains are listed from the residue outwards. * marks the point of attachment. IRDye800CW′ = near-infrared fluorescent dye (LiCor), attached as the maleimide; Cy5 = Cy5 near-infrared fluorescent dye; Butanoyl(4-Ph) = O=C(CCCc1ccccc1)*; Mpa = O=C(O)CCS

How the values were obtained:
MC1RL-800 = biological target: T1, MC1RL-800; test: competition binding with Eu-NDP-α-MSH on A375/hMC1R cells
T1 chain: {Butanoyl(4-Ph)}-H[dF]RWGK([Mpa-IRDye800CW′])-NH2

MC1RL-Cy5 = biological target: T2, MC1RL-Cy5; test: as above
T2 chain: {Butanoyl(4-Ph)}-H[dF]RWGK([Mpa-Cy5])-NH2

Ki (MC1RL-800): 0.4 nM | Ki (MC1RL-Cy5): 0.3 nM
B1: MC1R (protein)
chain: MAVQGSQRRLLGSLNSTPTAIPQLGLAANQTGARCLEVSISDGLFLSLGLVSLVENALVVATIAKNRNLHSPMYCFICCLALSDLLVSGSNVLETAVILLLEAGALVARAAVLQQLDNVIDVITCSSMLSSLCFLGAIAVDRYISIFYALRYHSIVTLPRARRAVAAIWVASVVFSTLFIAYYDHVAVLLCLVVFFLAMLVLMAVLYVHMLARACQHAQGIARLHKRQRPVHQGFGLKGAVTLTILLGIFFLCWGPFFLHLTLIVLCPEHPTCGCIFKNFNLFLALIICNAIIDPLIYAFHSQELRRTLKEVLTCSW
